Source: patent US20200140562A1
pKd: −log10 of the molar value.

Key:
[1] = target: human OX40 on cells (CHO-hOX40, 293HEK-hOX40, Jurkat-hOX40, activated primary CD4+ T cells) (human) (UniProt P43489); experiment: flow cytometry, activated CD4+ T cells, donor 2, 100 nM
[2] = target: human OX40 on cells (CHO-hOX40, 293HEK-hOX40, Jurkat-hOX40, activated primary CD4+ T cells) (human) (UniProt P43489); experiment: flow cytometry, 293HEK-hOX40, 8 nM
[3] = target: human OX40 on cells (CHO-hOX40, 293HEK-hOX40, Jurkat-hOX40, activated primary CD4+ T cells) (human) (UniProt P43489); experiment: flow cytometry, CHO-hOX40, 100 nM
[4] = target: human OX40 on cells (CHO-hOX40, 293HEK-hOX40, Jurkat-hOX40, activated primary CD4+ T cells) (human) (UniProt P43489); experiment: flow cytometry, CHO-hOX40, 100 nM blocker, competitor OX40L-hFc-fluorescein
[5] = target: human OX40_Fc (R&D Systems) (human) (UniProt P43489); experiment: BLI, IgG1 on tip, hOX40-Fc 50 nM, avid
human OX40_Fc (R&D Systems) (human), sequence (P43489 29-216): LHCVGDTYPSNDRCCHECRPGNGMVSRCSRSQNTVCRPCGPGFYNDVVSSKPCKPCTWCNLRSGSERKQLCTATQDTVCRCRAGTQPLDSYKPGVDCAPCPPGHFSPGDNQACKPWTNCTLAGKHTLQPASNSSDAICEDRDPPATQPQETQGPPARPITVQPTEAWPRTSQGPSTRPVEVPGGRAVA

[6] = target: cyno OX40_Fc (Acro Biosystems) (cyno); experiment: BLI, IgG1 on tip, cyno OX40-Fc 100 nM, avid
[7] = target: human OX40 on cells (CHO-hOX40, 293HEK-hOX40, Jurkat-hOX40, activated primary CD4+ T cells) (human) (UniProt P43489); experiment: flow cytometry, 293HEK-hOX40, 1.6 nM
[8] = target: human OX40 on cells (CHO-hOX40, 293HEK-hOX40, Jurkat-hOX40, activated primary CD4+ T cells) (human) (UniProt P43489); experiment: flow cytometry, 293HEK-hOX40, 40 nM
[9] = target: human OX40 on cells (CHO-hOX40, 293HEK-hOX40, Jurkat-hOX40, activated primary CD4+ T cells) (human) (UniProt P43489); experiment: flow cytometry, 293HEK-hOX40, 200 nM
[10] = target: human OX40 on cells (CHO-hOX40, 293HEK-hOX40, Jurkat-hOX40, activated primary CD4+ T cells) (human) (UniProt P43489); experiment: cell-based or functional assay

human OX40 on cells (CHO-hOX40, 293HEK-hOX40, Jurkat-hOX40, activated primary CD4+ T cells) (human), sequence (P43489 29-277): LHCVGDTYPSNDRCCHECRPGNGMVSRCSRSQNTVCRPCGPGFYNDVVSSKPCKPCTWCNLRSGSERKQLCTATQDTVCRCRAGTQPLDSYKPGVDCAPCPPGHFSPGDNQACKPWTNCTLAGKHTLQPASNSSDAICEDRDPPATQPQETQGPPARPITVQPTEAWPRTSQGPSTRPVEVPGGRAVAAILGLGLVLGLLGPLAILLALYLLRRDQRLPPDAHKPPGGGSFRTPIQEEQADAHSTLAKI

| MFI [1] [MFI] | MFI [2] [MFI] | CHO-OX40 binding intensity (MFI) [3] [MFI] | MFI of OX40L signal on CHO-OX40 cells [4] [MFI] | pKd [5] | pKd [6] | MFI [7] [MFI] | MFI [8] [MFI] | MFI [9] [MFI] | blocking of OX40L-based activation (recombinant OX40L 60 ug/ml), NFkB-luciferase in Jurkat-hOX40 [10] [nM] | Substance |
| --- | --- | --- | --- | --- | --- | --- | --- | --- | --- | --- |
| 242000 | 2.06e+06 | 169000 | 36000 | 9.21 | 8.23 | 613000 | 2.76e+06 | 2.41e+06 | – | 11D4, IgG1 OX40 antibody |
| – | – | – | – | – | – | – | – | – | > 0.08 | pogalizumab, human IgG1 OX40 antibody |
